CN113501872A (INST PATHOGEN BIOLOGY CAMS, dated 2021)

Molecular target: SARS-CoV-2刺突蛋白RBD区重组蛋白 (SARS-CoV-2, UniProt P0DTC2 319-541)
Test: indirect ELISA, RBD protein coated, Fab supernatant

B1: 人源抗SARS-CoV-2病毒Fab抗体SK1 (Fab, V domains shown)
VH: EVQLVESGGGLVQPGRSLRLSCAASGFIFDDYAMHWVRQAPGKGLEWVSGISWNSGTIGYADSVKGRFIISRDNAKNSLYLQLNRLGVEDTALYYCVKDIYYRDRNLGFAFDIWGQGTMVTVSS
VL: DIQLTQSPSSLSASIGDTVTITCRASQSIDNYLHWYQKKPGIAPKLLISATSTLENGVPSRFSGSRSGTDFTLTISSLQIEDFATYYCQQGHSVPLTFGGGTKLEVR
notes: also called SK1 Fab
B1: binds.
